Experimental data: patent US20160039904A1, “STABILIZED SINGLE HUMAN CD4 DOMAINS AND FUSION PROTEINS” (priority 2013, published 2016)
Like-named read-outs stand apart in the source and are kept apart here.

Assays:
[1] = target: HIV-1 Env of isolate GXE (HIV-1); test: cell-based or functional assay
[2] = target: HIV-1 Env of isolate IIIB (HIV-1); test: cell-based or functional assay
[3] = target: HIV-1 Env of isolate GXC (HIV-1); test: cell-based or functional assay
[4] = target: HIV-1 Env of isolate NL4-3 (HIV-1); test: cell-based or functional assay
[5] = target: HIV-1 Env of isolate JRCSF (HIV-1) (UniProt P20871); test: cell-based or functional assay
[6] = target: HIV-1 Env of isolate Z2Z6 (HIV-1); test: cell-based or functional assay
[7] = target: HIV-1 Env of isolate R2 (HIV-1); test: cell-based or functional assay
[8] = target: HIV-1 Env of isolate CM243 (HIV-1); test: cell-based or functional assay
[9] = target: HIV-1 Env of isolate 89.6 (HIV-1); test: cell-based or functional assay
[10] = target: HIV-1 Env of isolate JRFL (HIV-1); test: cell-based or functional assay
[11] = target: HIV-1 Env of isolate Bal (HIV-1); test: cell-based or functional assay
[12] = target: HIV-1 Env of isolate 92UG037.8 (HIV-1); test: cell-based or functional assay
[13] = target: HIV-1 Env of isolate JRFL (HIV-1); test: cell-based or functional assay; remark: listed apart in the source
[14] = target: HIV-1 Env of isolate Bal (HIV-1); test: cell-based or functional assay; remark: listed apart in the source
[15] = target: HIV-1 Env of isolate KNH1144.EC1 (HIV-1); test: cell-based or functional assay
[16] = target: HIV-1 Env of isolate CAM0015BBY.EC3 (HIV-1); test: cell-based or functional assay
[17] = target: HIV-1 Env of isolate N1 1046.e3 PV (HIV-1); test: cell-based or functional assay
[18] = target: HIV-1 Env of isolate A07412VRC12A (HIV-1); test: cell-based or functional assay
[19] = target: HIV-1 Env of isolate KNH1088.EC5 (HIV-1); test: cell-based or functional assay
[20] = target: HIV-1 Env of isolate Bal.EC1 TC (HIV-1); test: cell-based or functional assay
[21] = target: HIV-1 Env of isolate PBL286.VRC36aPV (HIV-1); test: cell-based or functional assay
[22] = target: HIV-1 Env of isolate CM240.EC1 (HIV-1); test: cell-based or functional assay
[23] = target: HIV-1 Env of isolate 55815.EC3 (HIV-1); test: cell-based or functional assay
[24] = target: HIV-1 Env of isolate 57128.VRC18 (HIV-1); test: cell-based or functional assay
[25] = target: HIV-1 Env of isolate AD8 (HIV-1); test: cell-based or functional assay
[26] = target: HIV-1 Env of isolate GS-015.EC12 (HIV-1); test: cell-based or functional assay
[27] = target: HIV-1 Env of isolate BZ167.ec9 (HIV-1); test: cell-based or functional assay

HIV-1 Env of isolate JRCSF (HIV-1), sequence (P20871 32-848 limits assumed): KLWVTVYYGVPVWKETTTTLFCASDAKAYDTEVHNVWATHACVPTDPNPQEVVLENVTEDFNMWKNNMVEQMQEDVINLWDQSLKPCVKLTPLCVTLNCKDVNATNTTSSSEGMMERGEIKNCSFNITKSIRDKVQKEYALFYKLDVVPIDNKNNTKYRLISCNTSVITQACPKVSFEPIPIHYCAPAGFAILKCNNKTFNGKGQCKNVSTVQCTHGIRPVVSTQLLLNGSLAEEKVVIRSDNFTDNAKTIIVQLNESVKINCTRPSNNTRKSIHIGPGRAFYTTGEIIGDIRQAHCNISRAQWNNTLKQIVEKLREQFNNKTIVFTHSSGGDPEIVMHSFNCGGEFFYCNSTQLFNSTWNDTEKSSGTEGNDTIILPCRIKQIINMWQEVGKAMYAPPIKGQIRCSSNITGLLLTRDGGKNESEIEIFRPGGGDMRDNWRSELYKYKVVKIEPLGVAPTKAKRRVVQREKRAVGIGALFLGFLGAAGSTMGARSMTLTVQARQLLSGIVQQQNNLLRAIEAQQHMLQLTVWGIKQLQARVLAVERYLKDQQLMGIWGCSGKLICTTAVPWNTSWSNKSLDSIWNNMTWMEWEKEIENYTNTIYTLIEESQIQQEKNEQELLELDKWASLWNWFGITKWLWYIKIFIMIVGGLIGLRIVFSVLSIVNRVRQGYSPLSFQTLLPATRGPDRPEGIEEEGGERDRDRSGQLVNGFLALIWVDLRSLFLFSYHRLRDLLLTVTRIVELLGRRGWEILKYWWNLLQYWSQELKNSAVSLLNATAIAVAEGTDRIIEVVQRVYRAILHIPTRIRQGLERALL

2G12 (antibody)
IC50, neutralization of pseudotyped HIV-1; '-' = No significant neutralization at the highest antibody concentration (67 nM) tested [1]: > 67 nM | IC90, neutralization of pseudotyped HIV-1; '-' = No significant neutralization at the highest antibody concentration (67 nM) tested [1]: > 67 nM | IC50, neutralization of pseudotyped HIV-1 [2]: 1.5 nM | IC90, neutralization of pseudotyped HIV-1 [2]: 9.3 nM | IC50, neutralization of pseudotyped HIV-1; '-' = No significant neutralization at the highest antibody concentration (67 nM) tested [3]: > 67 nM | IC90, neutralization of pseudotyped HIV-1; '-' = No significant neutralization at the highest antibody concentration (67 nM) tested [3]: > 67 nM | IC50, neutralization of pseudotyped HIV-1 [4]: 1.3 nM | IC50, neutralization of pseudotyped HIV-1 [5]: 0.58 nM | IC90, neutralization of pseudotyped HIV-1 [5]: 9.3 nM | IC50, neutralization of pseudotyped HIV-1 [6]: 0.7 nM | IC50, neutralization of pseudotyped HIV-1 [7]: 0.68 nM | IC90, neutralization of pseudotyped HIV-1 [7]: 4.6 nM | IC50, neutralization of pseudotyped HIV-1; '-' = No significant neutralization at the highest antibody concentration (67 nM) tested [8]: > 67 nM | IC90, neutralization of pseudotyped HIV-1; '-' = No significant neutralization at the highest antibody concentration (67 nM) tested [8]: > 67 nM | IC50, neutralization of pseudotyped HIV-1 [9]: 1.3 nM | IC90, neutralization of pseudotyped HIV-1 [9]: 43 nM | IC50, neutralization of pseudotyped HIV-1 [10]: 3 nM | IC90, inhibition of Env-mediated cell-cell fusion [10]: 67 nM | IC50, inhibition of Env-mediated cell-cell fusion [11]: 38 nM | IC90, inhibition of Env-mediated cell-cell fusion [11]: > 67 nM | IC90, neutralization of pseudotyped HIV-1 [11]: 41 nM | IC50, neutralization of pseudotyped HIV-1 [12]: 0.53 nM

4Dm2m (bispecific antibody)
IC50, neutralization of pseudotyped HIV-1 [13]: 0.06 nM | IC90, neutralization of pseudotyped HIV-1 [13]: 0.29 nM | IC50, neutralization of pseudotyped HIV-1 [14]: 0.12 nM | IC90, neutralization of pseudotyped HIV-1 [14]: 0.36 nM | IC50, neutralization in TZM-bl cell-based assay [15]: 0.081 nM | IC90, neutralization in TZM-bl cell-based assay [15]: 1 nM | IC50, neutralization in TZM-bl cell-based assay [16]: 0.72 nM | IC90, neutralization in TZM-bl cell-based assay [16]: 7.4 nM | IC50, neutralization of pseudotyped HIV-1 [1]: 0.83 nM | IC90, neutralization of pseudotyped HIV-1 [1]: 8.2 nM | IC90, neutralization in TZM-bl cell-based assay [17]: 27 nM | IC50, neutralization in TZM-bl cell-based assay [18]: 0.75 nM | IC90, neutralization in TZM-bl cell-based assay [18]: 5.7 nM | IC50, neutralization in TZM-bl cell-based assay [19]: 0.48 nM | IC50, neutralization in TZM-bl cell-based assay [20]: 0.057 nM | IC90, neutralization in TZM-bl cell-based assay [20]: 0.22 nM | IC50, neutralization in TZM-bl cell-based assay [21]: 2 nM | IC50, neutralization in TZM-bl cell-based assay [22]: 0.45 nM | IC90, neutralization in TZM-bl cell-based assay [22]: 3.7 nM | IC50, neutralization of pseudotyped HIV-1 [2]: 0.037 nM | IC90, neutralization of pseudotyped HIV-1 [2]: 0.1 nM | IC50, neutralization in TZM-bl cell-based assay [23]: 0.084 nM | IC90, neutralization in TZM-bl cell-based assay [23]: 0.61 nM | IC50, neutralization of pseudotyped HIV-1 [3]: 0.61 nM | IC90, neutralization of pseudotyped HIV-1 [3]: 4 nM | IC50, neutralization of pseudotyped HIV-1 [4]: 0.094 nM | IC90, neutralization of pseudotyped HIV-1 [4]: 0.15 nM | IC50, neutralization in TZM-bl cell-based assay [24]: 0.4 nM | IC90, neutralization in TZM-bl cell-based assay [24]: 2.8 nM | IC50, neutralization of pseudotyped HIV-1 [5]: 0.29 nM | IC90, neutralization of pseudotyped HIV-1 [5]: 3 nM | IC50, neutralization of pseudotyped HIV-1 [6]: 0.14 nM | IC90, neutralization of pseudotyped HIV-1 [6]: 1.1 nM | IC50, neutralization of pseudotyped HIV-1 [7]: 0.028 nM | IC90, neutralization of pseudotyped HIV-1 [7]: 0.43 nM | IC50, neutralization of pseudotyped HIV-1 [8]: 0.29 nM | IC90, neutralization of pseudotyped HIV-1 [8]: 1.2 nM | IC50, neutralization of pseudotyped HIV-1 [25]: 0.13 nM | IC90, neutralization of pseudotyped HIV-1 [25]: 0.74 nM | IC50, neutralization in TZM-bl cell-based assay [26]: 0.022 nM | IC90, neutralization in TZM-bl cell-based assay [26]: 0.17 nM | IC50, neutralization in TZM-bl cell-based assay [27]: 0.077 nM | IC90, neutralization in TZM-bl cell-based assay [27]: 0.5 nM | IC50, neutralization of pseudotyped HIV-1 [9]: < 0.021 nM | IC90, neutralization of pseudotyped HIV-1 [9]: < 0.021 nM | IC50, inhibition of Env-mediated cell-cell fusion [10]: 3.6 nM | IC50, neutralization of pseudotyped HIV-1 [10]: 0.14 nM | IC90, inhibition of Env-mediated cell-cell fusion [10]: 8.8 nM | IC90, neutralization of pseudotyped HIV-1 [10]: 0.39 nM | IC50, inhibition of Env-mediated cell-cell fusion [11]: 4.1 nM | IC50, neutralization of pseudotyped HIV-1 [11]: 0.15 nM | IC90, neutralization of pseudotyped HIV-1 [11]: 0.5 nM | IC50, neutralization of pseudotyped HIV-1 [12]: 0.051 nM | IC90, neutralization of pseudotyped HIV-1 [12]: 0.45 nM

D1D2 (receptor)
EC50 (read off the curve) of the enhancement of m36h1Fc binding (gp140Con-s (HIV-1)): 10 to 100 nM
